Results on seven substances are retold here after the supplement of paper PMC5998384.

Data set [1] concerns HeLa Kyoto. In words: solubility change mitosis vs G1/S (difference of NP-40 vs SDS log2 ratios) (log2 ratio difference); higher = more soluble in mitosis.
Data set [2] has as its system HeLa Kyoto. Description: melting temperature (median over replicates), in situ; higher = more thermally stable.
For data set [3], the system named is HeLa Kyoto. Description: solubility in G1/S (NP-40 vs SDS abundance) (log2 ratio); higher = more soluble. The conditions noted are these: cell cycle stage: G1/S.
Data set [4] has as its system HeLa Kyoto. In words: thermal stability score vs G1/S (z-score of summed log2 fold changes over temperatures); higher = more thermally stable than in G1/S.
Setting [5] is: cell cycle stage: early G1 (4.5 h after nocodazole release).
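For melting temperature (median over replicates), in situ in this document: HeLa Kyoto cells synchronized by double thymidine or nocodazole block, proteins quantified by TMT10plex mass spectrometry, three independent biological replicates.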
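For solubility change mitosis vs G1/S (difference of NP-40 vs SDS log2 ratios) in this document: synchronized HeLa Kyoto cells (double thymidine block for G1/S, nocodazole release for mitosis), protein amounts in NP-40 versus SDS lysates quantified by mass spectrometry, three biological replicates.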
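For solubility in G1/S (NP-40 vs SDS abundance) in this document: HeLa Kyoto cells arrested at G1/S by double thymidine block, proteins quantified by TMT10plex mass spectrometry in mild NP-40 versus SDS extracts, three biological replicates.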
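For thermal stability score vs G1/S (z-score of summed log2 fold changes over temperatures) in this document: synchronized HeLa Kyoto cells, proteins quantified by TMT10plex mass spectrometry, three biological replicates, mitosis taken 0.5 h after nocodazole release, G1/S directly after double thymidine block.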

With FLNB, in data set [1], the “solubility change mitosis (log2)” value was -0.0508. Further, the values for the melting temperature in data set [2] (cell cycle stage: G1/S) and in data set [2] (cell cycle stage: mitosis) were 51.8 °C and 51.3 °C, respectively. The “solubility in G1/S (log2)” value in data set [3] was -0.0724. In addition, the thermal stability score in data set [4] (setting [5]) was -0.118; in data set [4] (cell cycle stage: mitosis) it was 0.998.

With ZFC3H1, the “solubility change mitosis (log2)” value in data set [1] is 0.0411. In addition, the melting temperature in data set [2] (cell cycle stage: G1/S) came out at 49.3 °C; in data set [2] (cell cycle stage: mitosis), 49.9 °C. Further, the “solubility in G1/S (log2)” value in data set [3] is -0.247. For the same substance, the thermal stability score in data set [4] (setting [5]) stood at 0.428; in data set [4] (cell cycle stage: mitosis) it was 0.858.

In the case of “MVPGEENQLVPKEDVFWRCRQNIFDEMKKKFLQIENAAEEPRVLCIIQDTTNSKTVNERITLNLPASTPVRKLFEDVANKVGYINGTFDLVWGNGINTADMAPLDHTSDKSLLDANFEPGKKNFLHLTDKDGEQPQILLEDSSAGEDSVHDRFIGPLPREGSGGSTSDYVSQSYSYSSILNKSETGYVGLVNQAMTCYLNSLLQTLFMTPEFRNALYKWEFEESEEDPVTSIPYQLQRLFVLLQTSKKRAIETTDVTRSFGWDSSEAWQQHDVQELCRVMFDALEQKWKQTEQADLINELYQGKLKDYVRCLECGYEGWRIDTYLDIPLVIRPYGSSQAFASVEEALHAFIQPEILDGPNQYFCERCKKKCDARKGLRFLHFPYLLTLQLKRFDFDYTTMHRIKLNDRMTFPEELDMSTFIDVEDEKSPQTESCTDSGAENEGSCHSDQMSNDFSNDDGVDEGICLETNSGTEKISKSGLEKNSLIYELFSVMVHSGSAAGGHYYACIKSFSDEQWYSFNDQHVSRITQEDIKKTHGGSSGSRGYYSSAFASSTNAYMLIYRLKDPARNAKFLEVDEYPEHIKNLVQKERELEEQEKRQREIERNTCKIKLFCLHPTKQVMMENKLEVHKDKTLKEAVEMAYKMMDLEEVIPLDCCRLVKYDEFHDYLERSYEGEEDTPMGLLLGGVKSTYMFDLLLETRKPDQVFQSYKPGEVMVKVHVVDLKAESVAAPITVRAYLNQTVTEFKQLISKAIHLPAETMRIVLERCYNDLRLLSVSSKTLKAEGFFRSNKVFVESSETLDYQMAFADSHLWKLLDRHANTIRLFVLLPEQSPVSYSKRTAYQKAGGDSGNVDDDCERVKGPVGSLKSVEAILEESTEKLKSLSLQQQQDGDNGDSSKSTETSDFENIESPLNERDSSASVDNRELEQHIQTSDPENFQSEERSDSDVNNDRSTSSVDSDILSSSHSSDTLCNADNAQIPLANGLDSHSITSSRRTKANEGKKETWDTAEEDSGTDSEYDESGKSRGEMQYMYFKAEPYAADEGSGEGHKWLMVHVDKRITLAAFKQHLEPFVGVLSSHFKVFRVYASNQEFESVRLNETLSSFSDDNKITIRLGRALKKGEYRVKVYQLLVNEQEPCKFLLDAVFAKGMTVRQSKEELIPQLREQCGLELSIDRFRLRKKTWKNPGTVFLDYHIYEEDINISSNWEVFLEVLDGVEKMKSMSQLAVLSRRWKPSEMKLDPFQEVVLESSSVDELREKLSEISGIPLDDIEFAKGRGTFPCDISVLDIHQDLDWNPKVSTLNVWPLYICDDGAVIFYRDKTEELMELTDEQRNELMKKESSRLQKTGHRVTYSPRKEKALKIYLDGAPNKDLTQD [USP47]”, in data set [1], the “solubility change mitosis (log2)” value is -0.168. For the same substance, the results for the melting temperature in data set [2] (cell cycle stage: G1/S) and in data set [2] (cell cycle stage: mitosis) were 49.6 °C and 49.7 °C, respectively. Besides, in data set [3], the “solubility in G1/S (log2)” value is -0.111. Further, the figures for the thermal stability score in data set [4] (setting [5]) and in data set [4] (cell cycle stage: mitosis) were 0.111 and 0.427, respectively.

Take “MATCAEILRSEFPEIDGQVFDYVTGVLHSGSADFESVDDLVEAVGELLQEVSGDSKDDAGIRAVCQRMYNTLRLAEPQSQGNSQVLLDAPIQLSKITENYDCGTKLPGLLKREQSSTVNAKKLEKAEARLKAKQEKRSEKDTLKTSNPLVLEEASASQAGSRKESRLESSGKNKSYDVRIENFDVSFGDRVLLAGADVNLAWGRRYGLVGRNGLGKTTLLKMLATRSLRVPAHISLLHVEQEVAGDDTPALQSVLESDSVREDLLRRERELTAQIAAGRAEGSEAAELAEIYAKLEEIEADKAPARASVILAGLGFTPKMQQQPTREFSGGWRMRLALARALFARPDLLLLDEPTNMLDVRAILWLENYLQTWPSTILVVSHDRNFLNAIATDIIHLHSQRLDGYRGDFETFIKSKQERLLNQQREYEAQQQYRQHIQVFIDRFRYNANRASQVQSKLKMLEKLPELKPVDKESEVVMKFPDGFEKFSPPILQLDEVDFYYDPKHVIFSRLSVSADLESRICVVGENGAGKSTMLKLLLGDLAPVRGIRHAHRNLKIGYFSQHHVEQLDLNVSAVELLARKFPGRPEEEYRHQLGRYGISGELAMRPLASLSGGQKSRVAFAQMTMPCPNFYILDEPTNHLDMETIEALGRALNNFRGGVILVSHDERFIRLVCRELWVCEGGGVTRVEGGFDQYRALLQEQFRREGFL [ABCF3]”: the “solubility change mitosis (log2)” value in data set [1] is -0.0928. The melting temperature in data set [2] (cell cycle stage: G1/S) and in data set [2] (cell cycle stage: mitosis) was 47.9 °C each time. The “solubility in G1/S (log2)” value in data set [3] was 0.0738. The thermal stability score in data set [4] (setting [5]) was 1.82; in data set [4] (cell cycle stage: mitosis), 3.62.

“MWLQQRLKGLPGLLSSSWARRLLCLLGLLLLLLWFGGSGARRAAGGLHLLPWSRGEPGAAEPSACLEAATRAWRGLRERGEVVPLGPGVPALVANGFLALDVAANRLWVTPGEREPAVAPDFVPFVQLRPLSALAEAGEAVLLLREGLLRRVRCLQLGSPGPGPVAAGPGPASVSGLAAGSGRDCVLLQEDFLAHRGRPHVYLQRIQLNNPTERVAALQTVGPTAGPAPKAFTSTLEKVGDHQFLLYSGRSPPTPTGLVHLVVVAAKKLVNRLQVAPKTQLDETVLWVVHVSGPINPQVLKSKAAKELKALQDLARKEMLELLDMPAAELLQDHQLLWAQLFSPGVEMKKITDTHTPSGLTVNLTLYYMLSCSPAPLLSPSLSHRERDQMESTLNYEDHCFSGHATMHAENLWPGRLSSVQQILQLSDLWRLTLQKRGCKGLVKVGAPGILQGMVLSFGGLQFTENHLQFQADPDVLHNSYALHGIRYKNDHINLAVLADAEGKPYLHVSVESRGQPVKIYACKAGCLDEPVELTSAPTGHTFSVMVTQPITPLLYISTDLTHLQDLRHTLHLKAILAHDEHMAQQDPGLPFLFWFSVASLITLFHLFLFKLIYNEYCGPGAKPLFRSKEDPSV [KIAA2013]”: the “solubility change mitosis (log2)” value in data set [1] was -0.126. The melting temperature in data set [2] (cell cycle stage: G1/S) was found to be 56.9 °C; in data set [2] (cell cycle stage: mitosis) it was 56.1 °C. In addition, the “solubility in G1/S (log2)” value in data set [3] was -0.156. Moreover, the thermal stability score was -3.23 in data set [4] (setting [5]) and -4.42 in data set [4] (cell cycle stage: mitosis).

For the substance “MNKPITPSTYVRCLNVGLIRKLSDFIDPQEGWKKLAVAIKKPSGDDRYNQFHIRRFEALLQTGKSPTSELLFDWGTTNCTVGDLVDLLIQNEFFAPASLLLPDAVPKTANTLPSKEAITVQQKQMPFCDKDRTLMTPVQNLEQSYMPPDSSSPENKSLEVSDTRFHSFSFYELKNVTNNFDERPISVGGNKMGEGGFGVVYKGYVNNTTVAVKKLAAMVDITTEELKQQFDQEIKVMAKCQHENLVELLGFSSDGDDLCLVYVYMPNGSLLDRLSCLDGTPPLSWHMRCKIAQGAANGINFLHENHHIHRDIKSANILLDEAFTAKISDFGLARASEKFAQTVMTSRIVGTTAYMAPEALRGEITPKSDIYSFGVVLLEIITGLPAVDEHREPQLLLDIKEEIEDEEKTIEDYIDKKMNDADSTSVEAMYSVASQCLHEKKNKRPDIKKVQQLLQEMTAS [IRAK4]”, in data set [1], the “solubility change mitosis (log2)” value is -0.193. In addition, the values for the melting temperature in data set [2] (cell cycle stage: G1/S) and in data set [2] (cell cycle stage: mitosis) were 50.6 °C and 49.9 °C, respectively. In addition, the “solubility in G1/S (log2)” value in data set [3] was determined as 0.372. The thermal stability score in data set [4] (setting [5]) was 0.383; in data set [4] (cell cycle stage: mitosis), 1.05.

Turning to “MLRLVPTGARAIVDMSYARHFLDFQGSAIPQAMQKLVVTRLSPNFREAVTLSRDCPVPLPGDGDLLVRNRFVGVNASDINYSAGRYDPSVKPPFDIGFEGIGEVVALGLSASARYTVGQAVAYMAPGSFAEYTVVPASIATPVPSVKPEYLTLLVSGTTAYISLKELGGLSEGKKVLVTAAAGGTGQFAMQLSKKAKCHVIGTCSSDEKSAFLKSLGCDRPINYKTEPVGTVLKQEYPEGVDVVYESVGGAMFDLAVDALATKGRLIVIGFISGYQTPTGLSPVKAGTLPAKLLKKSASVQGFFLNHYLSKYQAAMSHLLEMCVSGDLVCEVDLGDLSPEGRFTGLESIFRAVNYMYMGKNTGKIVVELPHSVNSKL [ZADH2]”, the “solubility change mitosis (log2)” value in data set [1] is -0.199. Further, the values for the melting temperature in data set [2] (cell cycle stage: G1/S) and in data set [2] (cell cycle stage: mitosis) were 52.9 °C and 53.5 °C, respectively. In addition, the “solubility in G1/S (log2)” value in data set [3] was 0.198. For the same substance, the thermal stability score is 0.549 in data set [4] (setting [5]) and 1.57 in data set [4] (cell cycle stage: mitosis).
